According to article PMC9513391, “Crystal structure of the α-ketoglutarate-dependent non-heme iron oxygenase CmnC in capreomycin biosynthesis and its engineering to catalyze hydroxylation of the substrate enantiomer” (Frontiers in Chemistry, 2022):

Biological target: the molecule itself
Assay: crystal structure; CmnC apo and soaked complexes (L-Arg, L-hArg, alpha-KG, L-Arg/alpha-KG), space group I222, two chains in the asymmetric unit; apo crystals from 200 mM ammonium acetate, 24% v/v PEG 400, 0.1 M sodium citrate pH 5.5, 20°C

B1: CmnC (enzyme)
chain: MTAIREIRLSEPESAQAALLALECAQRYAEPDSADFLADAAVLAHDLPRAVRREVERARLDDRLHALVVRGNDVDQDALGPTPPHWRQARTAASRRYGFLLVLYASLLGDVVGWATQQDGRVVTDVLPIEGQEDSLVSSSSSVELGWHTEDAFSPYRADYVGLFSLRNPDSVATTVAGLDPDLVGPAVVDVLFGERFHIRPDNSHLPTHNSGGRLSDYFAGIVEAVENPRAVSILRGHRDAPQLCVDSDFTTAVDGDAEAAGALDTLIKHLGGALYEVVLGPGDVAFLDNRNVVHGRRPFRARFDGTDRWLKRINVTADLRKSRAARRDAQARVLGEA
notes: CmnC, alpha-ketoglutarate-dependent non-heme iron oxygenase of capreomycin biosynthesis; gene cmnC amplified from genomic DNA of the capreomycin producer (ATCC 23892) and subcloned into pET28a; also called CmnC^apo; wild-type CmnC
stoichiometry N: 2
